Results taken from publication PMC10090947.

What was measured:
[1] = target: Large tumor suppressor 1 (LATS1), endogenous (UniProt O95835); experiment: streptavidin affinity purification and MS (MS1 intensity); settings: three independent biological replicates; parent: est. -0.1; read off a plot
[2] = target: nonreceptor tyrosine phosphatase 14 (PTPN14), endogenous (UniProt Q15678); experiment: as above; settings: three independent biological replicates; parent: est. -0.1; read off a plot
TP53BP2 = TP53BP2 (UniProt Q13625); experiment: AP-MS (MS1 intensity); settings: parent: est. 33; read off a plot
UniProt Q13625, sequence (Q13625 whole entry): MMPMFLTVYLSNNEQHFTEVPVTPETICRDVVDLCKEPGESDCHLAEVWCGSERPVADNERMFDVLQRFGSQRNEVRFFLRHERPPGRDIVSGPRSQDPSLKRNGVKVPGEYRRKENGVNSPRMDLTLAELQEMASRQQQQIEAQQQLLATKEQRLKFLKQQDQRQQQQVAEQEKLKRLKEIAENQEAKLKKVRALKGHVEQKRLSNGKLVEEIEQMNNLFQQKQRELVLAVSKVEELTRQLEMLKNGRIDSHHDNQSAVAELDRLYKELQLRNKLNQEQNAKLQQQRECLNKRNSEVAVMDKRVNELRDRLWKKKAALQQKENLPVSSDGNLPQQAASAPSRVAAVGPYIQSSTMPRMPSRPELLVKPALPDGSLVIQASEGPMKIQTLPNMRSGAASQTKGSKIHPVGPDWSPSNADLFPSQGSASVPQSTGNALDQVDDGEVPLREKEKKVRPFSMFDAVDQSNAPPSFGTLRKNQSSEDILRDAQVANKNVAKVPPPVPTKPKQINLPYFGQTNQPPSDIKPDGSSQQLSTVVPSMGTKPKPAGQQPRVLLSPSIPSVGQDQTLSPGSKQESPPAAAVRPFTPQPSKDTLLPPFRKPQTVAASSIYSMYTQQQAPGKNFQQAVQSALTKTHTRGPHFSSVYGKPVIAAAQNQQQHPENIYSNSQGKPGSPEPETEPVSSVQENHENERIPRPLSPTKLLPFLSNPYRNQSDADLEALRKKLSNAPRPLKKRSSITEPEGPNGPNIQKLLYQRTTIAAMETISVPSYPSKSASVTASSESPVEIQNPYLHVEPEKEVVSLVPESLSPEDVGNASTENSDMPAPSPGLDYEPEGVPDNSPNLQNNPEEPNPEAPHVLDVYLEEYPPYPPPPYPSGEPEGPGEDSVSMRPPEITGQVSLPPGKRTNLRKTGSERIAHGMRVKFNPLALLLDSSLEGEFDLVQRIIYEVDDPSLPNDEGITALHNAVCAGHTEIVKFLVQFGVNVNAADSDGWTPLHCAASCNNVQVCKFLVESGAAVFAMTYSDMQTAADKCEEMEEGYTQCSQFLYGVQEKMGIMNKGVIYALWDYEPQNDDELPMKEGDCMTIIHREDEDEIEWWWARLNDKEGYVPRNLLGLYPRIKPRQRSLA

AMOTL1 = AMOTL1 (UniProt Q8IY63); experiment: AP-MS (MS1 intensity); settings: parent: est. 34; read off a plot
UniProt Q8IY63, sequence (Q8IY63 whole entry): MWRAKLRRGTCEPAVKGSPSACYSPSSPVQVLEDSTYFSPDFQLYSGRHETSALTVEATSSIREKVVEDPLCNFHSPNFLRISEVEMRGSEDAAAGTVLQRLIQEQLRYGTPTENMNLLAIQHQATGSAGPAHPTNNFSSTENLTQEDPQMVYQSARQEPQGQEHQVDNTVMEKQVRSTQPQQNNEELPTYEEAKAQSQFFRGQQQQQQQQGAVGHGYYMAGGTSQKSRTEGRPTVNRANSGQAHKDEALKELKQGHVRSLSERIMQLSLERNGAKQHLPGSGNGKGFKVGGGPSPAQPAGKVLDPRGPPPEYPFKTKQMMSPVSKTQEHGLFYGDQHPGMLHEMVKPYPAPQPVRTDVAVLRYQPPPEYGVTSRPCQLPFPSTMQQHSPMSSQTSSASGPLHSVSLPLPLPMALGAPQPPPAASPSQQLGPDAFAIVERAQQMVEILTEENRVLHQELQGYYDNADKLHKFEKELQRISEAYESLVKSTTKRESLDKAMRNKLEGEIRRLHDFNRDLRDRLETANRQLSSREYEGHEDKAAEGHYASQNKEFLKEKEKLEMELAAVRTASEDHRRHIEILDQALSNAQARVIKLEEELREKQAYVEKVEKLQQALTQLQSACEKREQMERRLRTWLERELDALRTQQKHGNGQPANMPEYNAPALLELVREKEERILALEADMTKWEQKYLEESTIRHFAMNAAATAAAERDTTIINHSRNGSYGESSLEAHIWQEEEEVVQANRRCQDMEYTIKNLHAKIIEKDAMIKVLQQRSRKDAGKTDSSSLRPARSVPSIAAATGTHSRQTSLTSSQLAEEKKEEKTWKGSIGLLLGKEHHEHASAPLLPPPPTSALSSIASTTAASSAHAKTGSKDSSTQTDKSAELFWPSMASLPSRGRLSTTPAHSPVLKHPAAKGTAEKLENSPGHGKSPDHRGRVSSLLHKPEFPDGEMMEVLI

CCDC85C = CCDC85C (UniProt A6NKD9); experiment: AP-MS (MS1 intensity); settings: parent: est. 32; read off a plot
UniProt A6NKD9, sequence (A6NKD9 whole entry): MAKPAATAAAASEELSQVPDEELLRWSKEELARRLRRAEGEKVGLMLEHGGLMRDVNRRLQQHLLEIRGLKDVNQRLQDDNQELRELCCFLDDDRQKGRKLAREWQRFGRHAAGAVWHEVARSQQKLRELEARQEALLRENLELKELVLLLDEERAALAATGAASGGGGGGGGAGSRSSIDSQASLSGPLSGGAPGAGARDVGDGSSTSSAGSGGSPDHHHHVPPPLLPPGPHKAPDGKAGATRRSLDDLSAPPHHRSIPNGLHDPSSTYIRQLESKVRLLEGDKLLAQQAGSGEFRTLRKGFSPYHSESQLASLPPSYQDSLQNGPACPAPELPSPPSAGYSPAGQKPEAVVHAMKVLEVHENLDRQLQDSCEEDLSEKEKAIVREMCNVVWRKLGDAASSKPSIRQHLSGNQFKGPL

[3] = target: Large tumor suppressor 1 (LATS1), endogenous (UniProt O95835); experiment: Strep AP-MS; settings: three biological replicates; parent: est. 0.0; read off a plot
[4] = target: nonreceptor tyrosine phosphatase 14 (PTPN14), endogenous (UniProt Q15678); experiment: Strep AP-MS; settings: three biological replicates; parent: est. 0.0; read off a plot

UniProt Q15678, sequence (Q15678 whole entry): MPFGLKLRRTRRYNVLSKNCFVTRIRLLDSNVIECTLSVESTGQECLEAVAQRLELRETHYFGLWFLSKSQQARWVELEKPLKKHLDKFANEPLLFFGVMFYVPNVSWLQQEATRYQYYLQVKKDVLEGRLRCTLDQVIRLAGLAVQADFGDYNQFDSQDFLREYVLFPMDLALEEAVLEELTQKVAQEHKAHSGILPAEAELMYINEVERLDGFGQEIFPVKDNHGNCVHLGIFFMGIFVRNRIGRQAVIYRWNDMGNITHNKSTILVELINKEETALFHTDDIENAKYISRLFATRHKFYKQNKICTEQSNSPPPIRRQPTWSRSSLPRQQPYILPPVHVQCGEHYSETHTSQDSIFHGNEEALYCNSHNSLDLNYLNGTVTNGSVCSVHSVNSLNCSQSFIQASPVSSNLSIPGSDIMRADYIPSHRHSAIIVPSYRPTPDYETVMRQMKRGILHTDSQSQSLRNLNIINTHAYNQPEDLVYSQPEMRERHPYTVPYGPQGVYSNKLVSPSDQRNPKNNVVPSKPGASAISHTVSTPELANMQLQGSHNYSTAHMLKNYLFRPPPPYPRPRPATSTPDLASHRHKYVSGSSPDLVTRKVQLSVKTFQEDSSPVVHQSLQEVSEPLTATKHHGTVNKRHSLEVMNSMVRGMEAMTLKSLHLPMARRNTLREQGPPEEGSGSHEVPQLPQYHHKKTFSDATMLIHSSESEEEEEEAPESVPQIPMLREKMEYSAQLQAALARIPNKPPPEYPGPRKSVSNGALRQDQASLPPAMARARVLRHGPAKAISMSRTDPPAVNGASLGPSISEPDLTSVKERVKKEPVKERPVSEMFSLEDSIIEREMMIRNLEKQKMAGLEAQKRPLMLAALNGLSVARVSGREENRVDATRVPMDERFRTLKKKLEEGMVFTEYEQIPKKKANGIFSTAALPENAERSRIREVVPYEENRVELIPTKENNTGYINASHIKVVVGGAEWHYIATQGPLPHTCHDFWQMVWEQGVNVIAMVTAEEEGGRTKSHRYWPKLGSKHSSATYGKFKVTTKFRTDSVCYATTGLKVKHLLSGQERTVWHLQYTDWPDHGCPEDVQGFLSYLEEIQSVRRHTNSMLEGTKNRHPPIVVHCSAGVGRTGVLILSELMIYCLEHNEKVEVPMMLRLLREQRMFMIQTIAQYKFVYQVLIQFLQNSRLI
UniProt O95835, sequence (O95835 whole entry): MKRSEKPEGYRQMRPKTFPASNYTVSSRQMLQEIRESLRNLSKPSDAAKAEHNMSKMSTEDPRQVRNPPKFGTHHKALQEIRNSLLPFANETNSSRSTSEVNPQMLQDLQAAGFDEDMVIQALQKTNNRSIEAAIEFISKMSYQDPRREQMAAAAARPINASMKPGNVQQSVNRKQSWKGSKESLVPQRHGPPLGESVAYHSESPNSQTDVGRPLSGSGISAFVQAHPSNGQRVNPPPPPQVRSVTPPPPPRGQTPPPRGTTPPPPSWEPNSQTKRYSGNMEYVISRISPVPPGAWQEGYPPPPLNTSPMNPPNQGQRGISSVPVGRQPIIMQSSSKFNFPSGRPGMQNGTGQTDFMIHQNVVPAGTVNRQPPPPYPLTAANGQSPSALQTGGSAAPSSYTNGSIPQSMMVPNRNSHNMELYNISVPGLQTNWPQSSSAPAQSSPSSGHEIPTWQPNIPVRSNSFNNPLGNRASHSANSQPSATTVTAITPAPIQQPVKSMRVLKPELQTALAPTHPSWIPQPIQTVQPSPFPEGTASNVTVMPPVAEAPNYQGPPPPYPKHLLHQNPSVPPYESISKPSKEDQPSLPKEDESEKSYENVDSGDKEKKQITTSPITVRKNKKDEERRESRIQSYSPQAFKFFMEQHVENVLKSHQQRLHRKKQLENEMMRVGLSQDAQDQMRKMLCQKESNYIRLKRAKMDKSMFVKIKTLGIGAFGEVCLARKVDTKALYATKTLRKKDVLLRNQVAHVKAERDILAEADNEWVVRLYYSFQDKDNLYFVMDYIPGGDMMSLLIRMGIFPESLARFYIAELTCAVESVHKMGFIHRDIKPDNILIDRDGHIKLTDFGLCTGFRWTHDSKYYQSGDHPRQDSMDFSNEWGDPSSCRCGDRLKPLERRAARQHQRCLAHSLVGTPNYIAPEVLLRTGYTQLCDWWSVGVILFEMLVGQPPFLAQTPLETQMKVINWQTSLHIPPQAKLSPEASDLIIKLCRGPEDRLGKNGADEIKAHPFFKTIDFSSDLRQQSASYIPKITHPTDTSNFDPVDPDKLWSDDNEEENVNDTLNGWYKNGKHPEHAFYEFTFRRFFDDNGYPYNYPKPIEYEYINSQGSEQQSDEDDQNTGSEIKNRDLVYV

Substance | other: log2(mutant vs WT) [1] | other: log2(mutant vs WT) [2] | response (log2(Intensity)) (TP53BP2) | response (log2(Intensity)) (AMOTL1) | response (log2(Intensity)) (CCDC85C) | other: log2(mutant vs WT) [3] | other: log2(mutant vs WT) [4]
Strep‐HA YAP1 (wild type) 5SA | -0.6 | 0 |  |  |  |  | 
Strep‐HA YAP1 (wild type) S367A |  |  | 30 | 34 | 28 |  | 
Strep‐HA YAP1 (wild type) ΔWW1 | -7.2 | -3.4 |  |  |  | -7.2 | -3.4
Strep‐HA YAP1 (wild type) ΔWW1/2 | -7 | -9.2 |  |  |  | -7 | -9.2
Strep‐HA YAP1 (wild type) ΔWW2 | -3.6 | -7.7 |  |  |  | -3.6 | -7.7
